Results on one substance are retold here after patent publication US20160017341A1.

For the test, the target named is B-lymphocyte antigen CD20 (UniProt P11836). The experiment in a line: direct binding of I-125 labeled antibody.
Chain of UniProt P11836 (P11836 whole entry): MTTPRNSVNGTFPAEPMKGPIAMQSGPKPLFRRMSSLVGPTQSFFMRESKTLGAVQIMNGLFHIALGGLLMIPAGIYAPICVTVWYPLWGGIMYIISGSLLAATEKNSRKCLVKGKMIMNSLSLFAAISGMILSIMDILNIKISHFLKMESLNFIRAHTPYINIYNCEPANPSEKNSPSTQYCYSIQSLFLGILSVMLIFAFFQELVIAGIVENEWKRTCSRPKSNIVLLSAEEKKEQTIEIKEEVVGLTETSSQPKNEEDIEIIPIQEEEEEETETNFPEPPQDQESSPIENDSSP

Turning to anti-CD20 monoclonal antibody 2B8, the apparent affinity constant (Kap) worked out at 3.5 nM.
